# Data as given in patent US20210347873A1 (SHANGHAI PHARMAEXPLORER, published 2021).
# How the values were obtained:
# [1] = biological target: T1, extracellular domain of human BLyS protein (hBLyS-ECD), His-tagged, Ala134-Leu285 (human, UniProt Q9Y275 134-285); assay: cell-based or functional assay
# [2] = biological target: T1, extracellular domain of human BLyS …; assay: SPR (Biacore), antibody captured by anti-human Fc, hBLyS-ECD as analyte
# T1 sequence (Q9Y275 134-285): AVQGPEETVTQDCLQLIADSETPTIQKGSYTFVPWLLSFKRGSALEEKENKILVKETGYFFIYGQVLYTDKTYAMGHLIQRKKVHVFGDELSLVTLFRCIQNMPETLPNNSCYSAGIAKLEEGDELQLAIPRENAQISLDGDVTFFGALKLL
Binder,"Proportion of B lymphocytes in splenocytes (%), in vivo in mice [1] [%]",Kd [2] [nM],koff [2] [s⁻¹],kon [2] [M⁻¹ s⁻¹]
"2-1G11 (antibody, V domains shown) VH: EVQLVESRGGVVQPGRSLRLSCAASGFTFSSYGMHWVRQAPGKGLEWVAVISYDGSNKYYADSVKGRFTISRDNSKNTLYLQMNSLRAEDAAVYYCARDRVDILTGYSIYGMDVWGQGTTVTVSS VL: EIVMTQSPATLSLSPGERATLSCRASQSVSSYLAWYQQKPGQAPRLLIYDASKRATGIPARFSGSGSGTDFTLTISSLEPEDFAVYYCQQRSNWPLTFGGGTKVEIK",25.6,–,–,–
"c35E6F7C3 (antibody, V domains shown) VH: EVQLQQSGAELVKPGASVKLSCTAAGFNIQDTYIHWVKQRPEQGLEWIGRIDPANANTVYDPKFQGKATITADTSSNTAYLQVSSLTSEDTAVYYCASPVITAGFAYWGQGTLVTVSA VL: QIVLTQSPAIMSASPGEKVTMTCGASSSVNYVHWYQQKSGTSPKRWIYDTSKLASGVPARFSGSGSGTSYSLTISSMEAEDAATYYCQQWTRSPLTFGAGTKVELK",30.5,1.45,0.000277,190000
